Test results: a protein production outcome set (Wang et al. 2014)

Assay: label from the status in PepcDB records

With “MLTLALCIMILFTYLCMFFNFKYSAHLSIYISQVILGYVVIIIHIGEHTLPIDILVVMSLGALLLHIKHKHLMQNRMSALFLKRLYYVAFKLVVFTLACFYISLIPIGINVIFLWISAISFSALFTFICYMMCSSNFLNLNNKPDFDVILVLGAGIFTENVTPMLASRLDRALTLYVQQPNAKFIVSGGQGPDEPISEALAMKRYLIHHGVESNHIMLEDQSTSTSENIQFSKSLIESHFECVPKIVCVTSQFHIMRALRFGQKFNLKLTGVGSHTPYHFFEIALIRDFLALMYQYKLLLTVYFAALFFICIITYWFIPSIPL” as the sequence, how does the protein production read?
Its protein production is “failed”.

With “MLTLLPTPIGNLQDITLRSLEVLKVAEIILCEDTRVSKRLLSLLSQKELLPPKEYRYISLHSHNEEATLQNLPPDFFTQEVVYMSDAGMPCISDPGAALVRYAQERGISYTVLPGA” as the sequence, how does the protein production read?
The protein production was “failed”.

For “MLTTTRRAALISGLATTGLAAFGNRAFAQETGAVGAAVDKFAQDVMAAFPDQPGLGITVVENGQITLAKGYGVKALGGQDRCDESTVFGIASNTKAMTAALLAMLVEEGRVEWDAPVTQYLPDFAMKDPIVTKLLTVRDLLVHRSGLSLGAGDLMIWPAPTHTRAEIVAGLKHLPIGGQFRGGYAYDNVLYVVAGAVIEAVTGQTWEQVIKARIFDPLGMSNTVSSPRLVDQSRRALPHARLGPPVRGLGPQKVLPFDASFDAAGPAGGVNSCPADIGKWMQVQLGRGVSADGKRLWSEAQAREMWKPQTITSSSDGPSNENPARPSMQAYALGWYVQDHRGERLLWHTGGLAGFISYTGLLPGRKSGIMIMTNAEENPVLRSLRFGGPDRLQGRSDFDWIASSKRVQAEADAQTIKDAAAATTPKGGGAPPSLPLEAYAGVYRDPWYGTVTISVTGKGKKKGLYVSFDKTPLLRGKLGPFDGETFITTFEDRTQEDAFFTFDIKDGKAVSALVKAVSPLADFSYDYHDLRLTKEG”, which protein production is on record?
The protein production was “failed”.

With “MLTVRNHPGVMSHICGLFARRAFNVDGILCMPLAGGEESRIWLQVLDDQRLQQMISQLEKLEDVLQVCRFDSEMPIFDQVEDLVAHQR” as the sequence, how does the protein production read?
Its protein production is “not failed”.

With “MLVGNYDATLVLTSLFVAILASYTALGMAGRVAASRGVAARVWLGGGAFAMGLGIWSMHFIGMLAFSLPIPLGYDVALTVASMALAVACSAFALWVVTRATLPWRRLAGAAALMGTGIAAMHYTGMAAMRMHPAIEYSPALFMLSVAVAIVASGAALWITHALRHNRPGAPAYRICAAIVMGLAIVGMHYTGMAAANFPQGSVCMAANSGISAGWLAVSTAAVTLAVLAVALVVAVLDTRLETRTSALNASLAQANEELVQMALHDTLTKLPNRALLDERLKQAIIRATAAGRGFSLLFIDLDGFKAINDAYGHGAGDLLLVEMAQRIKRAMRPQDCVARLGGDEFVVLADLPDPNDAAGLAERLIDTLTVPAEVQGHEVSVAASIGIALFPGDGADASTLLAHADAAMYHAKRLSQTHRVSFFEPSMNEDALEQLQLLQDLRLALPRNQLELHYQPKFVAPAGPVVGAEALLRWNHPTRGVIGPTVFIPIAERTGLIFSIGAWVLDEACRQMRQWRDMGHADWTVAVNLSSLQFSQPDLIDSIRATLARHDLPPRCLAIEITESTAMRDAEASLTVLRELAELGVSISIDDFGTGYSSLLYLKRLPATELKIDRGFVNQLEHDNEDAAIVSAIIALGQKLNLKIVAEGVETLAQQSFLTEMGCDSLQGFLLGRPLPAAEFLAHTLQPQLA” as the sequence, how does the protein production read?
Its protein production is “failed”.

With “MLVSCAMRLHSGVFPDYAEKLPQEEKMEKEDSFPQRVWQIVAAIPEGYVTTYGDVAKLAGSPRAARQVGGVLKRLPEGSTLPWHRVVNRHGTISLTGPDLQRQRQALLAEGVMVSGSGQIDLQRYRWNY” as the sequence, how does the protein production read?
Its protein production is “failed”.

For “MLVSSSKITRAREMVTKTEEKQLNQLEIQVDNGGGGTWEYLCLVRNLKVRRSEKVLKHGSSILNDQKKRSALGPDEWTLNEQVAIAAMDCQCLGVAQSCIKALQTKFPGSKRVGRLEALLLEAKGLWGEAEEAYASLLEDNPLDQAIHKRRVAISKALGKPSIAIELLNKYLELFMADHDAWRELAELYLSLQMYKQAAFCYEELILSQPTVPLYHLAYAEVLYTIGGVENIISARKYYAATVDLTGGKNTRALLGICLCASAIAQLSKGRNKEDKDATAAPELHSLAAAAVEKEYKQKAPDKLQLISSALRILKT”, which protein production is on record?
Its protein production is “failed”.

With “MLVTGVARQLGGRFVRRIQRDPNVDRVIAVDAVRPEHHLGGADFIQADIRQPTIARVLAEHSVDTVVHMDVTGTALGTGSRATVKETNVIGTMQLLGACQKSPTVKRLVVKSSTNVYGSAPRDPAVFTETTPPKSLPSGGFAKDTVEVEGYVRGFARRRPDVAVCVLRFANILGPSADSPLASYFSLPVLPTVFGYDPRLQFAHEDDVIDVLRIASYEPRRGTLNSGTFNVAGDGVLLLSQCARRLGRPTVPLLLPAVTWVGSAVRTLGMTDFSPEQIRLLTHGRVVATNQMRETLGYVPKYTTAETFADFARSRGPGLLPPEALAGAVDRIAALPALGGGHPPTQSAN” as the sequence, how does the protein production read?
The protein production was “failed”.

For “MLVVYIALMICTMTPVLALQAGADMSVLVWLVFGLVIVKAVLLVDHFMEMKHAPWGWRMAAQGWAVVVVSVLAGIHLAG”, which protein production is on record?
The protein production was “failed”.

With “MLWRPVGHGVEALYLATPLGRRVGYGVYVYRYRGLLVDTGPPKARPFAPEAALLTHAHEDHAGGAFRLGLPVYGSALTAALVAAPKPLRLYRRLVWGSPRPAQVEVAERVGPLHLLPTPGHAPDHVALYDPEAGLFFGGDLFLGVRASLATPGFDLQALLQSLRRALALKPRAFYCAHAGPLQAPLEALQAKLDFLEGKREEALRLKARGLTPKEALRRLFGGESPLALLSGGEMSRLAFVEALMMEP” as the sequence, how does the protein production read?
Its protein production is “failed”.

With “MLYRLEKCCTPEIRLLSTYDVCSIAIAAPMRATRSQGVWDFFWETILMAYTTAQLVTAYTNANLGKAPDAATTLTLDAYATQTQTGGLSDAAALTNTLKLVNSTTAVAIQTYQFFTGVAPSAAGLDFLVDSTTNTNDLNDAYYSKFAQENRFINFSINLATGAGAGATAFAAAYTGVSYAQTVATAYDKIIGNAVATAAGVDVAAAVAFLSRQANIDYLTAFVRANTPFTAAADIDLAVKAALIGTILNAATVSGIGGYATATAAMINDLSDGALSTDNAAGVNLFTAYPSSGVSGSTLSLTTGTDTLTGTANNDTFVAGEVAGAATLTVGDTLSGGAGTDVLNWVQAAAVTALPTGVTISGIETMNVTSGAAITLNTSSGVTGLTALNTNTSGAAQTVTAGAGQNLTATTAAQAANNVAVDGGANVTVASTGVTSGTTTVGANSAASGTVSVSVANSSTTTTGAIAVTGGTAVTVAQTAGNAVNTTLTQADVTVTGNSSTTAVTVTQTAAATAGATVAGRVNGAVTITDSAAASATTAGKIATVTLGSFGAATIDSSALTTVNLSGTGTSLGIGRGALTATPTANTLTLNVNGLTTTGAITDSEAAADDGFTTINIAGSTASSTIASLVAADATTLNISGDARVTITSHTAAALTGITVTNSVGATLGAELATGLVFTGGAGADSILLGATTKAIVMGAGDDTVTVSSATLGAGGSVNGGDGTDVLVANVNGSSFSADPAFGGFETLRVAGAAAQGSHNANGFTALQLGATAGATTFTNVAVNVGLTVLAAPTGTTTVTLANATGTSDVFNLTLSSSAALAAGTVALAGVETVNIAATDTNTTAHVDTLTLQATSAKSIVVTGNAGLNLTNTGNTAVTSFDASAVTGTGSAVTFVSANTTVGEVVTIRGGAGADSLTGSATANDTIIGGAGADTLVYTGGTDTFTGGTGADIFDINAIGTSTAFVTITDAAVGDKLDLVGISTNGAIADGAFGAAVTLGAAATLAQYLDAAAAGDGSGTSVAKWFQFGGDTYVVVDSSAGATFVSGADAVIKLTGLVTLTTSAFATEVLTLA” as the sequence, how does the protein production read?
The protein production was “failed”.

Which protein production does the source give for “MLYSSDLLAIVGAGEQASLSPRRLCLFKTTTGLPLRELNFLTSILAVRMNKKRLVVVLLEKTFVYDLNTLVMLDTIDTVPNPKGLSAFSPSLEGCYLAVPASTTKGSVLVYNVMDLQSHSEIDAHRSPLAAIALSSNGMYIATGSEQGTLIRVHLVSEATKSYSFRRGTYPSTIYSLSFGPSTQLPDILIATSSSGSIHAFSLSLAINQRSKRSTSFLGSVLPDSVSDALDPAHHHVLQNAVSSGIRSYAVVRKIDKLEGTSSPSHFTSLRATVSVITYNGYFQEYTLSINNKNESLWTLEREFNLFSITTG” here?
The protein production was “failed”.

Which protein production does the source give for “MLYTTFSAIIPSFLIILIGYTVGKIFSEETMGLASKVAIWVMVPTVTFTFINEYTPSFSTLGEFGLGVAIIFVIFYLYSRLFKEKKEVIHVTAVTANVGYLGYPILLSLWGEEALSLGVVYATLNIIMFSAVLPMFLGEKVNVKNLFKLPYVYALVAGFLTGKLGWSFRELPEWLVNAILMLKQSAIPYLLIYVGLSVSKLKLGRHLSKIGGIIVVNKLFLAPLIALVFALIYGLEGLTAKVFVLETAMPAAVNAVILTSALGGDSETVSYGVTLTTFFAIFTLPVWAVILESIFG” here?
Its protein production is “failed”.

For “MMAGFAQTTITKINQFYERWMPRLPAEMTARNVLVFCVVCLLCIGSVMVASASMPYAEYMHENPFHYVVRHAISIATAAIVAYLVYKVPLNVWFKNTFSFWLITILLLLAVLVIGTEVNGSRRWIRLAGFTLQPTEVAKVMMAIFTADYVVRRAKEVRTHWKGLVRLSGVMAITVGLIIAEPDLGATVVIVLMMVGIFFLAGAPPTQFAIMLGAVVMGIGFLILFEPYRLARAMSFTNPWADPLGTGYQLSNALMAFGRGEWFGTGLGHSVQKLSYLPEAHTDFMLAVLGEEFGFVGISIVIGLSFIMLACCIKIGHRALKHNFLRAGYLAYGISIIFLLQIIVNAGMNMGLMPTKGLTLPFISYGGTSLMMCAAMISLILRIDASTQEINPDREESNF”, which protein production is on record?
Its protein production is “failed”.

With “MMARVEKLRELMKENNLQGFLVTSPYNLRYLTNFTGTTGLAMITLDKAFFVTDFRYTEQAAEQATGFTIVKNTGHIFDEVADLAERLQLDNLAFEETQVSFADYSLLEEILPCELVPVMGLIEELREVK” as the sequence, how does the protein production read?
Its protein production is “not failed”.

With “MMCAARNTMSSSGSSPSGSDLQAFVMEFIITGFLMLVVCAVTTTKRTTEELEGLIIGATVTLNVIFVGEVSGASMNPARSIGPALVWGCYKGIWIYLLAPTLGAVSRALIHKMLPSIPNAEPKFSKTGSSHKRVSDLPL” as the sequence, how does the protein production read?
Its protein production is “failed”.

With “MMDGSTFYFVAWIGWIIVTFFMKKDPIRWKLGACILIFIICSPLHVTIASFVVSVNALLLCIISFIGITLYSVWKKLYSLLSALIIAMLYTSFHLLEIYDPIWIVVDRVFLLSSALVYASVLLHGDRILRLCSLYVGMLQAELLVTFIFSKLNFPYDYGSLAFFDIVAISTLFMAILFWIAKASVYMERFKRKTRKRKARVIHD” as the sequence, how does the protein production read?
The protein production was “failed”.

For “MMDVARAKFLPHEQVTFQVADATTLPFENEAFDAVVCQFGVMFFDKDTAFREAYRTLGRGGRYLFSVWDSRRYNPFASLAFEVLKQFFPLNPPRFLEAPVSSFEIDPIKEALIQSGFERIVISVQGREHDILDVRTFARGLVFSPVIEEIRERGGVEPEDIIAALAEALKREYGSRPTRYPMQAILFEAEKP”, which protein production is on record?
Its protein production is “failed”.

For “MMDVNSSGRPDLYGHLRSFLLPEVGRGLPDLSPDGGADPVAGSWAPHLLSEVTASPAPTWDAPPDNASGCGEQINYGRVEKVVIGSILTLITLLTIAGNCLVVISVCFVKKLRQPSNYLIVSLALADLSVAVAVMPFVSVTDLIGGKWIFGHFFCNVFIAMDVMCCTASIMTLCVISIDRYLGITRPLTYPVRQNGKCMAKMILSVWLLSASITLPPLFGWAQNVNDDKVCLISQDFGYTIYSTAVAFYIPMSVMLFMYYQIYKAARKSAAKHKFPGFPRVEPDSVIALNGIVKLQKEVEECANLSRLLKHERKNISIFKREQKAATTLGIIVGAFTVCWLPFFLLSTARPFICGTSCSCIPLWVERTFLWLGYANSLINPFIYAFFNRDLRTTYRSLLQCQYRNINRKLSAAGMHEALKLAERPERPEFVLITRTSGVHQALENFPWGNEVNRWRKSCEYFCTDKMLTTVEKKVMIHD”, which protein production is on record?
Its protein production is “failed”.

For “MMEEVARVVACDNQGWLTVEVELKSTCKSCNSSESCGTSAVAQAFSSKTQQFSIQSERTCEVGELLKLGLPESVILKAAALVYLMPLLGLFLGALSGQFFAGLFQINADLSAIGFAALGAITAWLIGKRKAKQLEVDSQPVILAYLGAGISLEKLPV”, which protein production is on record?
The protein production was “failed”.

Which protein production does the source give for “MMEHHKVHTTIQALQAKRKKLLTELAELEAEIKVSSERKSSFNISLSPSLLAEIEEIEYEEKTSKERRINHSVLLSPSFMAKVDEYMKEKGFSNRSLLFEKALEFYMLKHP” here?
The protein production was “failed”.
